Values of other authors as cited in paper PMC7481795.
Like-named read-outs stand apart in the source and are kept apart here.

Assays:
[1] = target: β-glucuronidase (Homo sapiens) (UniProt P08236)
[2] = target: β-glucuronidase (Homo sapiens) (UniProt P08236); remark: listed apart in the source

β-glucuronidase (Homo sapiens), sequence (P08236 23-651): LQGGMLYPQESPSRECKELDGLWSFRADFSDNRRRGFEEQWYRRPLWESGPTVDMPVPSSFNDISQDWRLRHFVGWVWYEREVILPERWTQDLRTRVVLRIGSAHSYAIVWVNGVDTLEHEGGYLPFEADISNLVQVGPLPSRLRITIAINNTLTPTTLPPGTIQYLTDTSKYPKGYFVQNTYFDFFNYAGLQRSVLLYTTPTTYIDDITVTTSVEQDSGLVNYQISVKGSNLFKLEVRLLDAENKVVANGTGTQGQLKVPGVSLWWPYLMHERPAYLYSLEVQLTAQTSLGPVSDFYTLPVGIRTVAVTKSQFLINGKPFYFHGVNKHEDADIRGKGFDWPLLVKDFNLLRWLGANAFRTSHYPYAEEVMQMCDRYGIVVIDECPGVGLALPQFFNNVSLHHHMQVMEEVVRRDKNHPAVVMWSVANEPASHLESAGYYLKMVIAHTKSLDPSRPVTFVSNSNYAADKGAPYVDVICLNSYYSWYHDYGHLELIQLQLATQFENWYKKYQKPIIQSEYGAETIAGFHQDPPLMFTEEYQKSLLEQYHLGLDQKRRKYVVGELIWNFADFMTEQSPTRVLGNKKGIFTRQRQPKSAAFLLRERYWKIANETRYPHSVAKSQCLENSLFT
cation-independent mannose 6-phosphate receptor domains 1-3, sequence (P08169 45-477): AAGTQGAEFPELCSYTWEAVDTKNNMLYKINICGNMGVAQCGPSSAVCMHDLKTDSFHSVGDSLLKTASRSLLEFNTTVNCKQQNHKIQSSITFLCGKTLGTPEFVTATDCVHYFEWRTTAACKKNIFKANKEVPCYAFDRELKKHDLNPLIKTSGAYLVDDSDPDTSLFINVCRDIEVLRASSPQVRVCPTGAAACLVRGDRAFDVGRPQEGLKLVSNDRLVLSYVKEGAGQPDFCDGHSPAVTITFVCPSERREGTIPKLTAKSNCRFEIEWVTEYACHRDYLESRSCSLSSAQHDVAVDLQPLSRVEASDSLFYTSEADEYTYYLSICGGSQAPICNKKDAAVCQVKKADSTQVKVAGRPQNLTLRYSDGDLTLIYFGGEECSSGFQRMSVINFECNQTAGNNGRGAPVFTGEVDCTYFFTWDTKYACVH
cation-independent mannose 6-phosphate receptor domain 3, sequence (P08169 332-477): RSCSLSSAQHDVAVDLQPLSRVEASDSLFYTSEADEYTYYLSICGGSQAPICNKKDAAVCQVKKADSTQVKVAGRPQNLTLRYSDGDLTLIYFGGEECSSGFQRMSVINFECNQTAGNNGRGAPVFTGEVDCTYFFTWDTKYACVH

| Kd [1] | Kd [2] | Substance |
| --- | --- | --- |
| 500 nM |  | cation-independent mannose 6-phosphate receptor domain 3 (from UniProt P08169) |
|  | 0.5 nM | cation-independent mannose 6-phosphate receptor domains 1-3 (from UniProt P08169) |
